Data reported in US20160368980A1, “INHIBITION OF GRANULOCYTE COLONY STIMULATING FACTOR IN THE TREATMENT OF CANCER” (STC.UNM, priority 2014, published 2016).

Key:
Assay type in all cases: cell-based, human
[1] = tested on: MKN-45 and Caco-2 cells; assay: Aldefluor / CD44 staining of stem-like population by flow cytometry; conditions: for effect on G-CSF-induced stem marker expressing cell expansion (aldehyde dehydrogenase high, CD44): treatment with ERK1/2 or RSK inhibitor before G-CSF
Method: (§1) Flow Cytometry: Single-and multi-color immunostaining was performed according to standard surface and intracellular FACS staining Biolegend protocols (Biolegend, San Diego, Calif.). Anti-Ep-cam Alexa-Fluor 488 (Biolegend 9c4) was used for identification of epithelial cells. The purity of MF was analyzed by staining for CD90-PE (Biolegend Thyl) and α-smooth actin-FITC (R&D Systems 1C14206) for flow cytometry compared to isotype controls. Anti-G-CSFR-PE (clone 1 mm 741 Biolegend) and G-CSF-FITC (clone 85FSCSF eBioscience) were used for the analysis of G-CSFR surface expression and intracellular G-CSF after 4 hour exposure to Brefeldin A compared to isotype controls. Anti-proliferating cell nuclear antigen (PCNA) (clone PCNA01, Biolegend) was used as a proliferation marker. Cancer stem-like populations in carcinoma cell lines were examined by staining with Aldefluor (Stem Cell Technologies, Vancouver, BC) and anti-CD44-APC (Biolegend clone BJ18) using the manufacturer's Aldefluor staining protocol compared to isotype control. All samples were analyzed on a Guava easyCyte 8HT flow cytometer (Millipore, Bellerica, Md.), and analyzed using FCS Express software (DeNovo Software, Los Angeles, Calif.).
Therefore, assessment of MKN-45 and Caco-2 cells for a similar population was undertaken. […] Cells were also stained with CD44, since in gastric and colon cancers CD44 has also been shown on cells with stem-like features (Huang et al., 2009; Katsuno et al., 2012; Su et al., 2011b; Takaishi et al., 2009; Wakamatsu et al., 2012). To examine Aldefluor staining, cells were gated on the CD44 positive population. Then, another gate was set using the diethylaminobenzaldehyde (DEAB) inhibitor of aldehyde dehydrogenase as a negative control (FIG. 5A). […] G-CSF treatment expanded this population from 6% to 16% of the cell population (FIGS. 5C). Further, 48 hour treatment of MKN-45 and Caco-2 cells with 10 ng/ml of G-CSF led to an approximately 10% increase in the stem-like Aldefluor^highCD44^+population (FIG. 5D) with both cell types.
In parallel, ERK1/2 and RSK inhibition were also examined for effects on stem-like populations.

[2] = tested on: MKN-45 and Caco-2 carcinoma cells; assay: G-CSF induced proliferation (CyQuant) with ERK1/2 or RSK inhibitors; conditions: 10 μM inhibitor, 30 min before recombinant G-CSF
Method: Proliferation: MKN-45, AGS, Caco-2 and DLD1 cells (2500 per well) were added to wells of a 96 well plate and incubated with 5-25 ng/ml of recombinant G-CSF (eBioscience) or conditioned media from MF for 48 hours. Conditioned media included a mixture of 50% media from cultured myofibroblasts and 50% fresh media for nutrients. Media from MF was taken when cells were 80% or greater confluent before passage (from approximately 1×10^6 cells). Proliferation was measured using CyQuant dye for DNA content (Life Technologies). […] Samples were read on a Tecan fluorescent plate reader (Mannedorf, Switzerland).
However, most of the studies have been performed in myeloid cells or neutrophils. Thus, we sought to examine G-CSFR signaling in MKN-45 and Caco-2 cells. […] Cells were lysed and protein levels normalized. […] A 5-fold increase in phosphorylation was found in MKN-45 and a 10-fold increase in phosphorylation was found in Caco-2 cells (FIGS. 6A and B). […] ERK1/2 or RSK inhibitors were added to some wells of cells before addition of G-CSF, and proliferation examined by CyQuant proliferation assay for DNA content.

[3] = tested on: MKN-45 and Caco-2 cells; assay: Fluoroblok migration assay (8 micron pores, CFSE-labeled cells); conditions: 10 ng/ml G-CSF in bottom wells, 4 hours
Method: Migration: MKN-45 and Caco-2 cells were stained with carboxyfluorein succinimidyl ester (CFSE) (Life Technologies) and added to the top of Fluoroblok 96 well plates with […]. Serum free media, media with 10% FBS, recombinant G-CSF, or MF supernatants were added to the bottom of the wells. G-CSF neutralizing antibodies (1 μg/ml) were added to some cultures. The fluorescence of migrated cells was measured after 4 hours of incubation at 37° C. on a Tecan plate reader.
Given the ability of G-CSF to mobilize bone marrow derived hematopoietic cells during systemic administration (Held and Gundert-Remy, 2010), we assessed whether it could increase the migratory ability, and therefore the malignant potential, of gastric and colon cancer cells. MKN-45 and Caco-2 were serum starved overnight, fluorescently labeled with CFSE, and plated on FluorBlok™ plates with 8 micron pores and serum free media in the top of the wells. The bottom wells were filled with serum free media, serum free media containing 10 ng/ml of G-CSF or serum containing media (positive control). […] Both cell types migrated through the pores toward serum as a positive control, and at even higher rates toward G-CSF. […]

[4] = tested on: ERK1/2 and RSK1 phosphorylation in Caco-2 cells; assay: Luminex signaling bead array, ERK1/2 and RSK1 phosphorylation, Caco-2; conditions: recombinant G-CSF 10 ng/ml
Method: (§2) Luminex Arrays: G-CSF levels were measured in cell culture supernatants by singleplex fluorescent bead based array (Life Technologies) according to manufacturer's instructions. ERK1/2 and RSK phosphorylation were measured by Milliplex MAPmates phospho-ERK1/2 and RSK arrays (EMD Millipore, Billerica Mass.) according to the manufacturer protocol. All samples were analyzed on a Luminex 200 machine.
(§3) Some studies have shown that G-CSFR signaling induces signaling pathways that lead to cell proliferation (Kamezaki et aL, 2005; Wang et al., 2008). However, most of the studies have been performed in myeloid cells or neutrophils. Thus, we sought to examine G-CSFR signaling in MKN-45 and Caco-2 cells. Cells were pre-incubated with serum free media for 2 hours before treatments and recombinant G-CSF (10 ng/ml) was added to wells in 15 min intervals. Cells were lysed and protein levels normalized. […] A 5-fold increase in phosphorylation was found in MKN-45 and a 10-fold increase in phosphorylation was found in Caco-2 cells (FIGS. 6A and B). […] Since we found phosphorylation of these signaling molecules after G-CSF treatment, we further sought to characterize the role of these pathways in the increased cell proliferation resulting from G-CSF treatment observed in MKN-45 and Caco-2 carcinoma cells shown in FIG. 3. […]

[5] = tested on: ERK1/2 and RSK1 phosphorylation in MKN-45 cells; assay: Luminex signaling bead array, ERK1/2 and RSK1 phosphorylation, MKN-45; conditions: recombinant G-CSF 10 ng/ml
Method: as §2, §3

[6] = tested on: MKN-45 and AGS gastric carcinoma cells; assay: CyQuant proliferation assay for DNA content, gastric carcinoma cells; conditions: recombinant G-CSF 5-25 ng/ml, after 4 days, dose dependent
Method: (§4) Proliferation: MKN-45, AGS, Caco-2 and DLD1 cells (2500 per well) were added to wells of a 96 well plate and incubated with 5-25 ng/ml of recombinant G-CSF (eBioscience) or conditioned media from MF for 48 hours. Conditioned media included a mixture of 50% media from cultured myofibroblasts and 50% fresh media for nutrients. Media from MF was taken when cells were 80% or greater confluent before passage (from approximately 1×10^6 cells). Proliferation was measured using CyQuant dye for DNA content (Life Technologies). Other samples were incubated with 10 μM ERK activation inhibitor peptide 1 or RSK inhibitor SL0101 (EMD Millipore) for 30 min before addition of recombinant G-CSF. Samples were read on a Tecan fluorescent plate reader (Mannedorf, Switzerland).
(§5) MKN-45 and AGS gastric carcinoma cells and Caco-2 and DLD1 colon carcinoma cells were incubated with increasing doses of recombinant G-CSF (5-25 ng/ml), which were chosen based on reports of serum concentrations in patients (Morstyn et al., 1989). After 4 days (approximately 2 doubling times), proliferation was measured using the CyQuant fluorescent proliferation assay for DNA content. G-CSF treated cells were compared to untreated control cells. […] To further confirm G-CSF induction of cell proliferation, G-CSF treated cells were stained intracellularly for proliferating cell nuclear antigen (PCNA). […]

[7] = tested on: gastric and colon carcinoma cells; assay: Intracellular PCNA staining by flow cytometry; conditions: G-CSF treated cells, both cell types
Method: as §1, with “Cancer stem-like populations in carcinoma cell lines were examined by staining with Aldefluor (Stem Cell Technologies, Vancouver, BC) and anti-CD44-APC (Biolegend clone BJ18) using the manufacturer's Aldefluor staining protocol compared to isotype control.” left out
MKN-45 and AGS gastric carcinoma cells and Caco-2 and DLD1 colon carcinoma cells were incubated with increasing doses of recombinant G-CSF (5-25 ng/ml), which were chosen based on reports of serum concentrations in patients (Morstyn et al., 1989). After 4 days (approximately 2 doubling times), proliferation was measured using the CyQuant fluorescent proliferation assay for DNA content. […]

[8] = tested on: Caco-2 and DLD1 colon carcinoma cells; assay: CyQuant proliferation assay for DNA content, colon carcinoma cells; conditions: recombinant G-CSF 5-25 ng/ml, after 4 days, Caco-2 and DLD1, dose dependent
Method: as §4, §5

Molecule	effect on G-CSF-induced stem marker expressing cell expansion (aldehyde dehydrogenase high, CD44) [1]	effect on G-CSF induced proliferation [2]	increased migration compared to serum containing media [3] [fold]	increased migration compared to serum free media [3] [fold]	increase in ERK1/2 and RSK1 phosphorylation [4] [fold]	incubation time of peak ERK1/2 and RSK1 phosphorylation [4] [min]	increase in ERK1/2 and RSK1 phosphorylation [5] [fold]	incubation time of peak ERK1/2 and RSK1 phosphorylation [5] [min]	increase in the stem-like Aldefluor high CD44+ population ([1]; 48 hour treatment, 10 ng/ml G-CSF, MKN-45 and Caco-2 (both cell types))	stem-like Aldefluor population, share of the cell population after G-CSF treatment ([1]; MKN-45, gated on CD44 positive, untreated 6%) [%]	increase in proliferation compared to untreated cells [6] [fold]	increase in PCNA staining compared to untreated cells [7]	increase in proliferation compared to untreated cells [8]
CC(=O)O[C@@H]1[C@@H](OC(C)=O)[C@@H](O)[C@H](Oc2c(-c3ccc(O)cc3)oc3cc(O)cc(O)c3c2=O)O[C@H]1C [RSK inhibitor, SL0101, reference compound]	completely abrogated	drastically inhibited	–	–	–	–	–	–	–	–	–	–	–
ERK activation inhibitor peptide 1 [ERK1/2 inhibitor, reference compound]	completely abrogated	drastically inhibited	–	–	–	–	–	–	–	–	–	–	–
G-CSF: recombinant G-CSF (eBioscience), pro-inflammatory cytokine (protein, UniProt P09920 31-208, looked up) Granulocyte …: VPLVTVSALPPSLPLPRSFLLKSLEQVRKIQASGSVLLEQLCATYKLCHPEELVLLGHSLGIPKASLSGCSSQALQQTQCLSQLHSGLCLYQGLLQALSGISPALAPTLDLLQLDVANFATTIWQQMENLGVAPTVQPTQSAMPAFTSAFQRRAGGVLAISYLQGFLETARLALHHLA	–	–	1.5	≤ 4	10	30	5	30	approximately 10%	16	≤ 2.5	greater than 2 fold	up to 4.5 fold
